Results: PMC9881579

Experiments:
LHD206A [1] = assay: BLI; biotinylated protomer on streptavidin biosensors, designed partner in solution; 25 °C; 10 mM HEPES pH 7.4, 150 mM NaCl, 3 mM EDTA, 0.05% Surfactant P20, 1 mg/ml BSA; global kinetic fit, 1:1 model
LHD206A [2] = assay: BLI; biotinylated protomer on streptavidin biosensors, designed partner in solution; 25 °C; 10 mM HEPES pH 7.4, 150 mM NaCl, 3 mM EDTA, 0.05% Surfactant P20, 1 mg/ml BSA; steady-state fit, 1:1 model
[3] = molecular target: LHD206A, split luciferase construct; assay: split reporter (BiFC, NanoBiT); smBiT:lgBiT equilibrium binding in E. coli lysate; one component at 1 nM, the other titrated; overnight at room temperature; 20 mM sodium phosphate, 100 mM NaCl, pH 7.4, 0.05% Tween 20

B1: LHD206B (designed binder)
chain: GRQEKVLKSIEETVRKMGVTMETHRSGNEVKVVIKGLHKSQQEQLLKDVLKTANKQGVNVHISFRGDTVTIRVRE
modifications: not checked
Kd (LHD206A [1]): 2.8 nM
koff (LHD206A [1]): 0.00075 s⁻¹
kon (LHD206A [1]): 270000 M⁻¹ s⁻¹
Kd (LHD206A [2]): 8.4 nM

B2: LHD206B, split luciferase construct (designed binder)
chain: GRQEKVLKSIEETVRKMGVTMETHRSGNEVKVVIKGLHKSQQEQLLKDVLKTANKQGVNVHISFRGDTVTIRVRE
modifications: here or on the partner: Strep-tag, sfGFP, GS-linker and split luciferase fragment left out; protomer taken from the unfused monovalent entry / Strep-tag, sfGFP, GS-linker and split luciferase fragment left out; protomer take
Kd [3]: 11 nM
